Results on 62 variants are retold here after the Human Domainome abundance scans (Beltran et al. 2025).

To fix the notation:
B1: DNA topoisomerase 3-alpha, residues 812 to 851; numbered along this chain, Q13472 (parent)
chain: TCNCGQEAVLLTVRKEGPNRGRQFFKCNGGSCNFFLWADS

± gives the uncertainty stated by the source.

In the series the parent is B1. In words: abundance fitness (aPCA) (normalised: wild type 0, dead -1); higher = more abundant; growth selection in yeast, the domain comes from the species named. To be noted: Homo sapiens.
With TCNCGQEAGLLTVRKEGPNRGRQFFKCNGGSCNFFLWADS, the abundance fitness was -0.355 ± 0.046.
The result for TCNCGQEASLLTVRKEGPNRGRQFFKCNGGSCNFFLWADS reads -0.194 ± 0.091.
As for TCNCGQEARLLTVRKEGPNRGRQFFKCNGGSCNFFLWADS, the figure is -0.154 ± 0.063; as for TCNCGQEAPLLTVRKEGPNRGRQFFKCNGGSCNFFLWADS, -0.227 ± 0.099; as for TCNCGQEALLLTVRKEGPNRGRQFFKCNGGSCNFFLWADS, 0.12 ± 0.26.
As for TCNCGQEAVLLTVRKEGPNRRRQFFKCNGGSCNFFLWADS, the abundance fitness was -0.643 ± 0.13.
On to TCNCGQEAVLLTVRKEGPNRQRQFFKCNGGSCNFFLWADS, for which the abundance fitness is -0.614 ± 0.14.
The result for TCNCGQEAVLLTVRKEGPNRWRQFFKCNGGSCNFFLWADS reads -0.89 ± 0.46; that for TCNCGQEAVLLTVRKEGPNRSRQFFKCNGGSCNFFLWADS, -0.469 ± 0.11.
As for TCNCCQEAVLLTVRKEGPNRGRQFFKCNGGSCNFFLWADS, the figure is -0.484 ± 0.063.
The result for TCNCKQEAVLLTVRKEGPNRGRQFFKCNGGSCNFFLWADS reads -0.263 ± 0.11.
With TCNCLQEAVLLTVRKEGPNRGRQFFKCNGGSCNFFLWADS, the abundance fitness was -0.666 ± 0.059.
Turning to TCNCMQEAVLLTVRKEGPNRGRQFFKCNGGSCNFFLWADS, the abundance fitness is -0.267 ± 0.095.
On to TCNCGREAVLLTVRKEGPNRGRQFFKCNGGSCNFFLWADS, for which the abundance fitness came to 0.038 ± 0.22.
As for TCNCGVEAVLLTVRKEGPNRGRQFFKCNGGSCNFFLWADS, the figure is -0.338 ± 0.15; as for TCNCGQEAVLLTVRKEGPNRGRQFFKCNGGKCNFFLWADS, 0.112 ± 0.08.
The result for TCNCGQEAVLLTVRKEGPNRGRQFFKCNGGTCNFFLWADS reads 0.114 ± 0.11; that for TCNCGQEAVLLTVRKEGPNRGRQFFKCNGGHCNFFLWADS, 0.092 ± 0.088.
The result for TCNCGQEAVLLTVRKEGPNRGRQFFKCNGGGCNFFLWADS reads -0.071 ± 0.068.
For the variant TCNCGQEAVLLTVRKEGPNRGRQFFKCNGGCCNFFLWADS, the abundance fitness was -0.239 ± 0.076.
With TCNCGQEAVLLTVRKEGPNRGRQFFKCNGGMCNFFLWADS, the abundance fitness was -0.13 ± 0.085.
TCNCGQEAVLLTVRKEGPNRGRQFFKCNGGRCNFFLWADS: the abundance fitness was determined as 0.065 ± 0.051.
The result for TCNCGQEAVLLTVRKEGPNGGRQFFKCNGGSCNFFLWADS reads -0.171 ± 0.072; that for TCNCGQEAVLLTVRKEGPNSGRQFFKCNGGSCNFFLWADS, -0.167 ± 0.049; that for TCNCGQEAVLLTVRKEGPNYGRQFFKCNGGSCNFFLWADS, 0.007 ± 0.099.
The result for TCNCGQEAVLLTVRKEGPNPGRQFFKCNGGSCNFFLWADS reads -0.227 ± 0.12; that for TCNCGQEAVLLTVRKEGPNWGRQFFKCNGGSCNFFLWADS, -0.271 ± 0.086; that for TCNCGQEAVLLTVRKEGPNRGRQFFKCNGGSCNFFLLADS, -0.52 ± 0.23.
The result for TCNCGQEAVLLTVRKEGPNRGRQFFKCNGGSCNFFLPADS reads -0.239 ± 0.064; that for TCNGGQEAVLLTVRKEGPNRGRQFFKCNGGSCNFFLWADS, -1.3 ± 0.26; that for TCNCGQEAVLLTVRKEGPNRGRQFFKCNGGSCNFVLWADS, -0.352 ± 0.14.
In the case of TCNCGQEAVLLTVRKEGPNRGRQFFKCNGGSCNFKLWADS, the abundance fitness was -0.014 ± 0.11.
On to TCNCGQEAVLLTVRKEGPNRGRQFFKCNGGSCNFQLWADS, for which the abundance fitness was -0.241 ± 0.09.
As for TCNCGQEAVLLTVRKEGPNRGRQFFKCNGGSCNFWLWADS, the figure is -0.246 ± 0.11; as for TCNCGQEAVLLTVRKEGPNRGRQFFKCNGGSCNFLLWADS, -0.444 ± 0.076; as for TCNCGQEAVLLTVRKEGPHRGRQFFKCNGGSCNFFLWADS, 0.157 ± 0.1.
Take TCNCGQEAVLLTVRKEGPSRGRQFFKCNGGSCNFFLWADS: the abundance fitness is -0.168 ± 0.097.
With TCNCGQEAVLLTVRKEGPWRGRQFFKCNGGSCNFFLWADS, the abundance fitness was -0.454 ± 0.13.
As for TCNCGQEAVLLTVRKEGPLRGRQFFKCNGGSCNFFLWADS, the figure is -0.195 ± 0.073; as for TCNCGQEAVLLTVRKEGPVRGRQFFKCNGGSCNFFLWADS, -0.54 ± 0.1; as for TCNCGQEAVLLTVRKEGPTRGRQFFKCNGGSCNFFLWADS, -0.075 ± 0.071.
As for TCNCGQEAVLLTVRKEGPMRGRQFFKCNGGSCNFFLWADS, the figure is 0.085 ± 0.14.
As for TCNCGQERVLLTVRKEGPNRGRQFFKCNGGSCNFFLWADS, the figure is -0.543 ± 0.11; as for TCNCGQEWVLLTVRKEGPNRGRQFFKCNGGSCNFFLWADS, -0.367 ± 0.15.
As for TCNCGQESVLLTVRKEGPNRGRQFFKCNGGSCNFFLWADS, the abundance fitness was -0.369 ± 0.058.
As for TCNCGQEFVLLTVRKEGPNRGRQFFKCNGGSCNFFLWADS, the figure is -1 ± 0.44.
As for TCNCGQEAVLLTVRKEGPNRGRQFFKCSGGSCNFFLWADS, the figure is -0.09 ± 0.047; as for TCNCGQEAVLLTVRKEGPNRGRQFFKCIGGSCNFFLWADS, 0.137 ± 0.3.
As for TCNCGQEAVLLTVRKEGPNRGRQFFKCLGGSCNFFLWADS, the figure is -0.195 ± 0.18; as for TCNCGQEAVLLTVRKEGPNRGRQFFKCTGGSCNFFLWADS, -0.043 ± 0.13.
As to TCNCGQEAVLLTVRKEGPNRGRQFFKCWGGSCNFFLWADS, the abundance fitness stood at 0.079 ± 0.2.
Consider TCNCGQEAVLLTVRKEGPNRGRQFFKCRGGSCNFFLWADS, for which the abundance fitness came out at 0.131 ± 0.12.
The result for TCNCGQEAVLLTVRKEGPNRGRQFFKCNGGSSNFFLWADS reads -0.33 ± 0.41; that for TCNCGQEAVLLTVRKEGPNRGRQFFKCNGGSRNFFLWADS, -0.934 ± 0.26.
Regarding TCNCGQEAVLLTVRKEGPNRGRQFFKCNGGSTNFFLWADS, the abundance fitness was -0.854 ± 0.26.
In the case of TCNCGQEAVLLTVRKEGPNRGRQFFKCNGGSCNFFLWAMS, the abundance fitness is -1.03 ± 0.22.
Consider TCNCGQEAVLLTVRKEGPNRGRQFFKCNGGSCNFFLWALS, for which the abundance fitness is -0.93 ± 0.15.
For the variant TCNCGQEAVLLTVRKEGPNRGRQFFKCNGGSCNFFLWAQS, the abundance fitness is -0.63 ± 0.42.
TCNCGQEAVLLTVRKEGPNRGRQFWKCNGGSCNFFLWADS: the abundance fitness is -0.123 ± 0.084.
The result for TCNCGQEAVLLTVRKEGPNRGRQFVKCNGGSCNFFLWADS reads -0.509 ± 0.076; that for TCNCGQEAVLLTVQKEGPNRGRQFFKCNGGSCNFFLWADS, 0.001 ± 0.095.
As to TCNCGQEAVLLTVWKEGPNRGRQFFKCNGGSCNFFLWADS, the abundance fitness is -0.075 ± 0.06.
